Test results from the Immune Epitope Database (IEDB).

Tests used:
HLA-B*51:01 [1] = experiment: IEDB peptide-MHC binding, purified MHC/competitive/fluorescence; filed as Kd, often an IC50 or EC50 that approximates it; ≥ and ≤ were set here for values at or beyond the usual limits of such assays; conditions: source organism: Brucella abortus S19
HLA-A*26:01 [2] = experiment: as above
HLA-A*30:01 = experiment: IEDB peptide-MHC binding, purified MHC/competitive/radioactivity; filed as Kd, often an IC50 or EC50 that approximates it; ≥ and ≤ were set here for values at or beyond the usual limits of such assays
HLA-A*30:02 = experiment: as above
HLA-B*35:01 = experiment: as above
HLA-B*53:01 = experiment: as above
HLA-A*01:01 = experiment: as above
HLA-A*26:01 [3] = experiment: as above; conditions: source organism: Dengue virus 3 Martinique/1243/1999
HLA-B*15:01 = experiment: IEDB peptide-MHC binding, purified MHC/direct/fluorescence; filed as Kd, often an IC50 or EC50 that approximates it; ≥ and ≤ were set here for values at or beyond the usual limits of such assays
HLA-B*58:01 = experiment: as above
HLA-B*44:02 = experiment: IEDB peptide-MHC binding, purified MHC/competitive/radioactivity; filed as Kd, often an IC50 or EC50 that approximates it; ≥ and ≤ were set here for values at or beyond the usual limits of such assays; conditions: source organism: Dengue virus 2 Jamaica/1409/1983
HLA-A*24:02 [4] = experiment: IEDB peptide-MHC binding, purified MHC/competitive/fluorescence; ≥ and ≤ were set here for values at or beyond the usual limits of such assays
HLA-A*02:01 [5] = experiment: as above
HLA-A*23:01 = experiment: IEDB peptide-MHC binding, purified MHC/competitive/radioactivity; filed as Kd, often an IC50 or EC50 that approximates it; ≥ and ≤ were set here for values at or beyond the usual limits of such assays
HLA-A*24:02 [6] = experiment: as above
HLA-B*51:01 [7] = experiment: as above
HLA-A*02:02 = experiment: as above; conditions: source organism: Vaccinia virus WR
HLA-A*02:03 = experiment: as above; conditions: source organism: Vaccinia virus WR
HLA-A*02:06 = experiment: as above; conditions: source organism: Vaccinia virus WR
HLA-A*03:01 = experiment: as above; conditions: source organism: Dengue virus 2 Jamaica/1409/1983
HLA-A*11:01 = experiment: as above; conditions: source organism: Dengue virus 2 Jamaica/1409/1983
HLA-A*33:01 = experiment: as above; conditions: source organism: Dengue virus 2 Jamaica/1409/1983
HLA-A*68:01 = experiment: as above; conditions: source organism: Dengue virus 2 Jamaica/1409/1983
HLA-A*02:01 [8] = experiment: IEDB peptide-MHC binding, purified MHC/competitive/fluorescence; filed as Kd, often an IC50 or EC50 that approximates it; ≥ and ≤ were set here for values at or beyond the usual limits of such assays; conditions: source organism: Vaccinia virus WR
[9] = source organism: Dengue virus 3 Martinique/1243/1999
[10] = source organism: Dengue virus 2 Jamaica/1409/1983
[11] = source organism: Mammarenavirus juninense
[12] = source organism: Dengue virus 4 Philippines/H241/1956
[13] = source organism: Dengue virus 1 Brazil/97-11/1997
[14] = source organism: Vaccinia virus WR
[15] = source organism: Mycobacterium tuberculosis
[16] = source organism: Zaire ebolavirus
[17] = source organism: Sudan ebolavirus
[18] = source organism: Haemophilus influenzae

## CPLVLDFII
HLA-B*51:01 [1]
  Kd: 323 nM

## ITYGACPRY
HLA-A*26:01 [2]; source organism: Influenza A virus (A/Sichuan/2/1987(H3N2))
  Kd: 34.3 nM

## WFFDLPLPWT
HLA-A*30:01; [9]
  Kd: 16300 nM

## FAGPVSQHNY
HLA-A*30:02; [10]
  Kd: 11.6 nM
HLA-B*35:01; [10]
  Kd: 38.4 nM
HLA-B*53:01; [10]
  Kd: 435 nM

## ETENILTVLL
HLA-A*01:01; [9]
  Kd: 3840 nM
HLA-A*26:01 [3]
  Kd: 16200 nM

## KLIADSIDF
HLA-B*15:01; [11]
  Kd: 67.5 nM
HLA-B*58:01; [11]
  Kd: 1620 nM

## KDLISYGGGW
HLA-B*44:02
  Kd: 310 nM

## SIGKMLESTY
HLA-A*30:02; [12]
  Kd: 1560 nM

## VSSWEEVPY
HLA-A*01:01; [13]
  Kd: 269 nM
HLA-A*30:02; [13]
  Kd: 1860 nM

## GNRGSTSFK
HLA-A*30:01; [14]
  Kd: 2.04 nM

## PFIRNPNKM
HLA-A*24:02 [4]; [14]
  IC50: 65.8 nM

## KLQERLAKL
HLA-A*02:01 [5]; [15]
  IC50: 100 nM

## SYNDYFNVL
HLA-A*24:02 [4]; source organism: Vaccinia virus
  IC50: 98.3 nM

## STRVGMGEA
HLA-A*30:01; [13]
  Kd: 5.02 nM

## VTTWENVPY
HLA-A*01:01; [9]
  Kd: 590 nM
HLA-A*30:02; [9]
  Kd: 10.9 nM

## DSFLLMLCL
HLA-A*24:02 [4]; [16]
  IC50: ≥ 313000 nM

## DYQGKTVWF
HLA-A*23:01; [12]
  Kd: 805 nM
HLA-A*24:02 [6]; [12]
  Kd: 763 nM

## ILPWTKISE
HLA-A*02:01 [5]; [14]
  IC50: ≥ 247000 nM
HLA-A*24:02 [4]; [14]
  IC50: 33100 nM

## WFFDLPLPW
HLA-A*23:01; [9]
  Kd: 24 nM
HLA-A*24:02 [6]; [9]
  Kd: 62.2 nM

## NNLEEICQL
HLA-A*02:01 [5]; [16]
  IC50: ≥ 225000 nM

## ETFLQSPPI
HLA-A*02:01 [5]; [17]
  IC50: ≥ 143000 nM
HLA-A*24:02 [4]; [17]
  IC50: 13900 nM

## EPETPNMDVI
HLA-B*53:01; [9]
  Kd: 10800 nM

## QPENLEYTI
HLA-B*53:01; source organism: Dengue virus 2 16681-PDK53
  Kd: 28 nM

## LPLPWLPGAD
HLA-B*35:01; [10]
  Kd: 2490 nM
HLA-B*51:01 [7]; [10]
  Kd: ≥ 32600 nM

## KVKKLNRCA
HLA-A*30:01; [14]
  Kd: 3.12 nM

## AIRAGYSIV
HLA-A*02:02
  Kd: 1200 nM
HLA-A*02:03
  Kd: 0.211 nM
HLA-A*02:06
  Kd: 8060 nM
HLA-A*30:01; [14]
  Kd: 1.42 nM

## RGRIGRNPA
HLA-A*30:01; [12]
  Kd: 32.3 nM

## RTLAKEGIK
HLA-A*03:01
  Kd: 30 nM
HLA-A*30:01; [10]
  Kd: 217 nM

## NYEAGEWAE
HLA-A*24:02 [4]; [16]
  IC50: 13400 nM

## KQRLTNLEK
HLA-A*30:01; [14]
  Kd: 0.951 nM

## LTSRATWAK
HLA-A*03:01
  Kd: 58.6 nM
HLA-A*11:01
  Kd: 44.8 nM
HLA-A*30:01; [10]
  Kd: 176 nM

## AICSAVPSHW
HLA-B*44:02
  Kd: 181 nM

## AGVLWDVPSP
HLA-A*30:01; [10]
  Kd: 11900 nM

## TTRGETLFY
HLA-A*26:01 [2]; source organism: Yersinia pestis Nepal516
  Kd: 34.1 nM

## SQKHFDTWW
HLA-B*15:01; [18]
  Kd: 473 nM
HLA-B*58:01; [18]
  Kd: 3040 nM

## KLAGGVAVI
HLA-A*02:01 [5]; [15]
  IC50: 120 nM

## FPVSIPITA
HLA-B*35:01; [10]
  Kd: 1.7 nM
HLA-B*51:01 [7]; [10]
  Kd: 3720 nM

## YGTLIIDEV
HLA-A*02:01 [5]; source organism: Variola virus
  IC50: 3320 nM

## EVKSCHWPK
HLA-A*30:01; [10]
  Kd: 166 nM
HLA-A*33:01
  Kd: 7.23 nM
HLA-A*68:01
  Kd: 70.6 nM

## LPLPWTSGAS
HLA-B*35:01; [13]
  Kd: 938 nM
HLA-B*51:01 [7]; [13]
  Kd: 10600 nM

## YLYQPCDLL
HLA-A*02:01 [8]
  Kd: 0.2 nM

## SWHYDQDHPY
HLA-A*30:02; [10]
  Kd: ≥ 69700 nM

## MKDEPVVFS
HLA-A*02:01 [5]; [16]
  IC50: ≥ 420000 nM

## AFWETKKNL
HLA-A*02:01 [5]; [16]
  IC50: ≥ 242000 nM
HLA-A*24:02 [4]; [16]
  IC50: 2480 nM

## IDNNTFVRL
HLA-A*02:01 [5]; [17]
  IC50: ≥ 149000 nM
HLA-A*24:02 [4]; [17]
  IC50: 67900 nM

## RVFNEYGFV
HLA-A*30:01; [14]
  Kd: 142 nM
